Our source for the IC50, HDLM-2 cell proliferation assay, IC50, TF-1 proliferation assay and IC50, eotaxin release from NHLF values is US20070128192A1.

In assay [1] the target is native (naturally occurring) human IL-13 released from HDLM-2 cells (human) (UniProt P35225). In words: cell-based or functional assay.
A further assay concerns the target human IL-13 (human) (UniProt P35225). Description: cell-based or functional assay.

Chain of human IL-13 (human) (P35225 other isoform, or with tags, fused parts or gaps): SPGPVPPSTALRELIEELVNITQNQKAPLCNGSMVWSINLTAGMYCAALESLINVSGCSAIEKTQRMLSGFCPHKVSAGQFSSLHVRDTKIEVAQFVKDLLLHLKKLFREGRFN
Chain of native (naturally occurring) human IL-13 released from HDLM-2 cells (human) (P35225 other isoform, or with tags, fused parts or gaps): as above

Take B-B13 (antibody): in assay [1], the IC50, HDLM-2 cell proliferation assay is 16.7 nM. In the assay with human IL-13 (human), this substance displayed an IC50, TF-1 proliferation assay of 1.02 nM and an IC50, eotaxin release from NHLF of 0.219 nM.

Regarding JES10-5A2 (antibody), the IC50, HDLM-2 cell proliferation assay in assay [1] turned out to be 10.7 nM. For the same substance, in the assay with human IL-13 (human), the IC50, TF-1 proliferation assay amounted to 0.471 nM and the IC50, eotaxin release from NHLF was found to be 0.623 nM.
